How the values were obtained:
[1] = target: T1, human PD-1 expressed on the cell surface (CHO-PD1 cells) (human, UniProt Q15116 25-288); assay: FACS cell binding, CHO cell line overexpressing human PD-1
T1 construct: Also used here as the target for native PD-1 on human PBMC / T cells in the functional (IFN-g) assays; also called CHO cell line overexpressing human PD-1; Cell-Surface Human PD-1 antigen
Procedure: Antibodies with expression levels >250 nM and mouse IgGs from hybridomas were tested in a fluorescence-activated cell sorting (FACS) cell-binding assay. Chinese Hamster Ovary (or CHO) Cells stably expressing the human target molecule PD-1 on the cell surface (CHO-PD1) were used to screen for binding. Parental CHO cells were used as a negative control to determine background-binding levels. Parental CHO cells and CHO-PD1 cells were cultured in RPMI w/10% FCS penicillin/streptomycin (Pen/Strep) and glutamine (or Gln) and split every 3-4 days at 10⁵ cells/mL.
A mix of parental CHO cells and CHO-PD1 cells was prepared as follows: Parental CHO cells were washed 2× in PBS then incubated in PBS containing 1 μM CellTrace™ Oregon Green488® (Life Technologies) at 37° C. for 30 minutes. Cells were then washed 2× with RPMI w/10% fetal calf serum (FCS), washed 2× with FACS buffer (PBS w/2% FCS), suspended thoroughly in ice-cold FACS buffer at a final concentration of 2×10⁶ cells/mL and kept on ice. CHO-PD1 cells were similarly washed with FACS buffer and kept on ice at 2×10⁶ cells/mL. Parental CHO cells and CHO-PD1 cells were then mixed to obtain a 1:1 cell suspension and seeded at 100 μL per well on 96 well polypropylene plates. Plates were spun at 1500 rpm for 5 minutes and cell pellets were suspended in 50 μL FACS buffer containing 6-12 point dilutions of anti-PD-1 variants starting from concentrations of −100-200 nM antibody, dispensed using BioMek FX (Beckman Coulter). Cells were then incubated on ice for 1 hr, washed with FACS buffer and incubated for 1 hr on ice with 50 μL FACS buffer containing 2.5 μg/ml R-phycoerythrin-conjugated goat anti-Human IgG (Jackson ImmunoResearch) or AF647-conjugated goat anti-mouse IgG (Life Technologies) dispensed using BioMek FX (Beckman Coulter). Cells were then washed 2× with FACS buffer and fixed for 10 minutes in 200 μL PBS with 2% paraformaldehyde (PFA) prior to fluorescence detection. Samples were acquired using a Becton Dickinson LSRII FACS. Mean Fluorescence Intensity of PD-1 antibody binding was analyzed using FlowJo® software (Tree Star, Inc.).

[2] = target: T1, human PD-1 expressed on the cell …; assay: cell-based FACS competition on CHO-PD1 cells; competitor rhPDL2-Fc
Procedure: (§1) CHO-PD1 cells were cultured in RPMI with 10% FCS Pen/Strep and Gln and split every 3-4 days at 10⁵ cells/ml. Cells were washed 2× with FACS buffer (PBS w/2% FCS), […] at a final concentration of 1×10⁶ cells/ml and seeded at […] per well on 96 well polypropylene plates. Plates were spun at 1500 rpm for 5 minutes and cell pellets were suspended in 50 μL FACS buffer containing 8 point 1:3 dilutions (2× concentrated) of anti-PD-1 antibody variants, starting from high concentration of −200 nM. […] Cell were then incubated on ice for 1 hr, washed with FACS buffer and incubated for 1 hr on ice with 50 μl FACS buffer containing 2.5 μg/ml R-phycoerythrin-conjugated anti-human IgG (Jackson ImmunoResearch). Cells were then washed 2× with FACS buffer and fixed for 10 minutes in 200 μl PBS with 2% PFA prior to acquisition. Samples were acquired using a Becton Dickinson LSRII FACS.

[3] = target: T2, Human PD-1 (ACROBiosystems, Inc., Catalog No. PD1-H5221) (human, UniProt Q15116 25-167); assay: ELISA, binding of human PD-1 (coated)
T2 construct: Bought recombinant protein; also called huPD1-His; PD-1-his; not shown: His tag of the bought protein (huPD1-His)

[4] = target: T2, Human PD-1 (ACROBiosystems, Inc., …); assay: competition ELISA on coated PD-1; competitor PD-L1-Fc (ACROBiosystems)
Procedure: PD-1 (ACROBiosystems, Inc.) was adsorbed on 384-well white Maxisorp® plates (Nunc) at 2 μg/mL in sodium bicarbonate buffer (pH 8.9) and incubated at 30° C. for 1 hour or overnight at 4° C. The plate was washed 3 times with PBS pH 7.4 with 0.05% Tween20 and blocked with 2% bovine serum albumin (BSA) in PBS pH 7.4+0.1% Tween20 for 1 hour at 30° C.
After a 1 hour incubation at 30° C., the plate was washed and incubated with HRP-conjugated anti-mouse Fc (Jackson Laboratories), followed by detection with SuperSignal™ Pico Chemiluminescent Substrate (Thermo Pierce). Luminescence was detected on a SpectraMax® M5 plate reader (Molecular Devices).

[5] = target: T1, human PD-1 expressed on the cell …; assay: cell-based FACS competition on CHO-PD1 cells; competitor rhPDL1-Fc
Procedure: as §1

[6] = target: T3, cynomolgus PD-1 (ACROBiosystems, Inc., Catalog No. PD1-H5254) (cynomolgus, UniProt B0LAJ3 25-167); assay: SPR (Biacore)
T3 construct: also called cyno PD-1

[7] = target: T2, Human PD-1 (ACROBiosystems, Inc., …); assay: SPR (Biacore)

T1 sequence (Q15116 25-288 limits assumed): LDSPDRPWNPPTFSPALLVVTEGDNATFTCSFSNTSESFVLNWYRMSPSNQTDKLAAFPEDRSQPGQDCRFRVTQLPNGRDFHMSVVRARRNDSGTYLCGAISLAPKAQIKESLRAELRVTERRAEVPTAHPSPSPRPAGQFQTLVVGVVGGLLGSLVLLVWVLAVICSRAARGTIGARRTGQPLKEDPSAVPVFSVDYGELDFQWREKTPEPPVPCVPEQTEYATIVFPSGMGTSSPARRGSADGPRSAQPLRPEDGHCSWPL
T2 sequence (Q15116 25-167 limits assumed): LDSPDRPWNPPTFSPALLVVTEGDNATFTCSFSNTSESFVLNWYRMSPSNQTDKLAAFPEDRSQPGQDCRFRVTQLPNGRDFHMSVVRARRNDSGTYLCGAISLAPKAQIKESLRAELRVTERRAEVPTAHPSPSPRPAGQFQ
T3 sequence (B0LAJ3 entry or part of it limits assumed, form in doubt): as the sequence (Q15116 25-167 limits assumed) above, with D2E, P10A, V19L, T35A, Q75R counted along it

Binder | Kd [1] [nM] | IC50 [2] [nM] | EC50 [3] [nM] | IC50 [4] [nM] | IC50 [5] [nM] | Kd [6] [nM] | Kd [7] [nM]
1B10 murine hybridoma IgG (antibody, V domains shown, Mouse IgG from hybridoma; also called m1B10) VH: DVQLQESGPGLVKPSQSLSLTCTVTGHSITSDYAWNWIRQFPGNKLEWMGYISYSGRTSYNPSLTSRISITRDTSKNQFFLQLNSVTTEDTATYYCARGYALDYWGQGTSVTVSS VL: QIVLSQSPAILSASPGEKVTMTCRTSSSVNYMHWFQQKPGSSPKPWIYATSKLASGVPARFSGSGSGTSYSLTISRVEAEDAATYFCQQWISDPWTFGGGTKLEIK | 3.2 | 0.56 | 1.71 | 9.47 | 5.96 | 2.56 | 10.4
1E9 murine hybridoma IgG (antibody, V domains shown, Mouse IgG from hybridoma; also called m1E9) VH: EVKLVESGGGLVSPGGSLKLSCAASGFTFSTFGMSWVRQTPEKRLEWVATISGGGSDTYYPDSVQGRFIISRYNAKNNLYLQMNSLRPEDTALYYCARQGYDVYSWFAYWGQGTLVTVSA VL: not shown | 2.9 | 0.58 | 0.33 | 0.89 | 5.86 | 2.54 | 9.9
4B10 murine hybridoma IgG (antibody, V domains shown, Mouse IgG from hybridoma; also called m4B10) VH: EVKLVESGGGLVKPGGSLKLSCAASGFTFSTYGMSWVRQTPEKRLQWVATISGGGSNTYYSDSVKGRFTISRDNAKNNLYLQMSSLRSEDTALYYCARQRDSAWFASWGQGTLVTVSA VL: not shown | 1.39 | 0.01 | 0.47 | 1.43 | 1.99 | 0.561 | 0.913
10B4 murine hybridoma IgG (antibody, V domains shown, Mouse IgG from hybridoma; also called m10B4) VH: QVQLQQSGAELMKPGASVKMSCKTTGYIFSSYWIGWVKQRPGHGLEWIGKIFPGSGSADYNENFKGKATFTVDTSSNTAYMQLSSLTSEDSAVYYCARGYGNYLYFDVWGAGTTVTVSS VL: NIVMTQTPKFLLVSAGDRITITCKASQSVSDDVAWYQQKPGQSPKLLISYAFKRYIGVPDRFTGSGYGTDFTFTISTVQAEDLAVYFCQQNYNSPYTFGGGTKLELKR | 1.34 | 0.18 | 0.59 | 1.32 | 2.53 | 0.195 | 0.252

Reference: patent US20210107981A1 (SUTRO BIOPHARMA, published 2021)
